The values that follow come from article PMC4742251, “The Malarial Exported PFA0660w Is an Hsp40 Co-Chaperone of PfHsp70-x” (PLoS ONE, 2016).

By Kd is commonly meant the constant that tells how readily two partners part at equilibrium.

Conditions in all cases: both partners purified
Assay [1] deals with T1, HSPA1A-(His)6 (human, UniProt P0DMV8 1-641).
T1 construct: human Hsp70 (HSPA1A); also called human Hsp70; HSPAIA
Description: SPR; Hsp70s amine-coupled to a GLC chip (ProteOn XPR36); BSA, Hsj1a or PFA0660w at 1 μM as analyte in PBST pH 7.4, with and without 1 mM ATP; read qualitatively. In general terms: SPR reads the build-up and loss of mass on a sensor chip optically.

Assay [2] has as its target T1, HSPA1A-(His)6. Kind of assay: SPR; Hsp70s amine-coupled to a GLC chip (ProteOn XPR36); PFA0660w 200-1000 nM as analyte in PBST pH 7.4 with 1 mM ATP; 60 μl/min, 90 s contact, 300 s dissociation; separate fits of association and dissociation, KD calculated from the rate constants.
The target of assay [3] is T2, (His)6-PfHsp70-1 (Plasmodium falciparum, UniProt Q8IB24 1-677).
T2 construct: PfHsp70-1, parasite-resident Hsp70 of Plasmodium falciparum
The assay is described as above.

Assay [4] concerns the target (His)6-PfHsp70-x (Plasmodium falciparum). The assay is described as above.

T1 sequence (P0DMV8 whole entry): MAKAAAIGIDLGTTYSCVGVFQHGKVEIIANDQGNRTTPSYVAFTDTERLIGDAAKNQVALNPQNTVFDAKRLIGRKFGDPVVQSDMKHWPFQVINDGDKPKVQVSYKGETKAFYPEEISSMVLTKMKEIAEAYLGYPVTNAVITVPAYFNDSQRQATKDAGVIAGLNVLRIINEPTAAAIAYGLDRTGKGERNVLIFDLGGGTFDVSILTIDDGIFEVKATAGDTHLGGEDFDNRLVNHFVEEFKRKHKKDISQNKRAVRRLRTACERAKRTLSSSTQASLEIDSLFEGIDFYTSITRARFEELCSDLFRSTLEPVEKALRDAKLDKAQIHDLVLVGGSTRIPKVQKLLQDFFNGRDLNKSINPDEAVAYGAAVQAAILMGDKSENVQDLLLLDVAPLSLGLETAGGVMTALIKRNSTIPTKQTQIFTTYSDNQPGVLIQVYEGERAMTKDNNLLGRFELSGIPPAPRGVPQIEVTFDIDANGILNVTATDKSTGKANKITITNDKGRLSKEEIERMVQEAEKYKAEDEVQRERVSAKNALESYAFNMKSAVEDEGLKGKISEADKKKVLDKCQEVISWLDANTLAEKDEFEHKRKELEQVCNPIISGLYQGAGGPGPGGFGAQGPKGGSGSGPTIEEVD

B1: (His)6-Hsj1a (natural protein, UniProt P25686-2 1-277, looked up)
chain: MASYYEILDVPRSASADDIKKAYRRKALQWHPDKNPDNKEFAEKKFKEVAEAYEVLSDKHKREIYDRYGREGLTGTGTGPSRAEAGSGGPGFTFTFRSPEEVFREFFGSGDPFAELFDDLGPFSELQNRGSRHSGPFFTFSSSFPGHSDFSSSSFSFSPGAGAFRSVSTSTTFVQGRRITTRRIMENGQERVEVEEDGQLKSVTINGVPDDLALGLELSRREQQPSVTSRSGGTQVQQTPASCPLDSDLSEDEDLQLAMAYSLSEMEAAGKKPADVF
notes: Control Hsp40; also called DNAJB2a
Consider B1, for which the binding result in assay [1] was “binds”.

B2: (His)6-PFA0660w (natural protein)
chain: AEGNKNFFFNKDNGVFGKSSMDYYTLLGVDKGCSEDDLRRAYLKLAMKWHPDKHVNKGSKVEAEEKFKNICEAYSVLSDNEKRVKYDLFGMDALKQSGFNSSNFQGNISINPLEVFTKAYSFYNKYFSKSSGAGNHNIFTHIKNLYPLRNDFSEDESSYNDVEEYEVPLYVTLEDLYNGCTKTLKVTRKRYDGCYLYYEDYFINVDIKQGWNNGTKITFHGEGDQSSPDSYPGDLVLVLQTKKHSKFVRKSRDLYYRHIITLEQSLTGFDFVIKSLDNRDIHIQIDEVVKPDTKKVIKNEGMPYSRDPSIRGNLIVEFDIIYPNTIKKEQKKLIKEIFKESY
B2: the Kd in assay [2] was 64 nM; in assay [3], 251 nM; in assay [4], 37 nM.
